Data on 1 molecule can be found in PMC1762009, “Structure of the yeast histone H3-ASF1 interaction: implications for chaperone mechanism, species-specific interactions, and epigenetics” (BMC Structural Biology, 2006).

The target in the experiment is T1, conserved N-terminus of yeast Asf1 (residues 2–155) (S. cerevisiae, UniProt P32447 2-155).
T1 construct: Asf1 (anti-silencing function 1), budding yeast, residues 2-155; Written as a molecule of its own for the pair; also called Asf1N; ScAsf1; source: E. coli, purified (Ni-chromatography, TEV cleavage, second Ni step, gel filtration); not shown: His6, N-terminal, cleaved; MBP, N-terminal, cleaved
T1 sequence (P32447 2-155): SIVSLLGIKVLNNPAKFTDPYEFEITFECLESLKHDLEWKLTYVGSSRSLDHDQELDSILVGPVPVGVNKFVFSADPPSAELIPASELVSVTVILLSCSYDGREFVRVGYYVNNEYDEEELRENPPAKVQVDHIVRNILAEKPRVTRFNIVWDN
Kind of experiment: crystal structure; Asf1N fused to H3α3 by the linker AAGAATAA on one chain; hanging-drop vapor diffusion, 18°C, 85 mM Tris-HCl (pH 8.5), 120 mM Li2SO4, 25% PEG 4000, 15% glycerol; 2.2 Å. To be noted: both partners purified.

B1: C-terminal α3 helix of yeast histone H3 (residues 121–134) (domain or fragment, S. cerevisiae, UniProt P61830 122-135, looked up)
chain: KKDIKLARRLRGER
notes: histone H3, budding yeast, C-terminal alpha helix, amino acids 121-134; The final model holds H3 residues 121-131 only; also called H3α3; ScH3 121-134; source: E. coli, purified (Ni-chromatography, TEV cleavage, second Ni step, gel filtration), as a fusion behind Asf1N
Turning to B1, the binding result is given as “binds”.
